The labels stand for the following.
B1: myc-tagged SynDIG4 (wild type) [rat] / HA-tagged μ2 AP subunit [not stated] (parent)
chain 1: MSSEKSGLPDSVPHTSPPPYNAPQPPAEPPIPPPQTAPSSHHHHHHHYHQSGTATLPRLGAGGLASAAAGAQRGPSSSATLPRPPHHAPPGPAAGAPPPGCATLPRMPPDPYLQETRFEGPLPPPPPAAAAPPPPAPAPTAQAPGFVVPTHAGAVGTLPLGGYVAPGYPLQLQPCTAYVPVYPVGTPYASGTPGGPGVTSTLPPPPQGPGLALLEPRRPPHDYMPIAVLTTICCFWPTGIIAIFKAVQVRTALARGDLVSAEIASREARNFSFISLAVGIAAMVLCTILTVVIIIAAQHHENYWDP
chain 2: MIGGLFIYNHKGEVLISRVYRDDIGRNAVDAFRVNVIHARQQVRSPVTNIARTSFFHVKRSNIWLAAVTKQNVNAAMVFEFLYKMCDVMAAYFGKISEENIKNNFVLIYELLDEILDFGYPQNSETGALKTFITQQGIKSQHQTKEEQSQITSQVTGQIGWRREGIKYRRNELFLDVLESVNLLMSPQGQVLSAHVSGRVVMKSYLSGMPECKFGMNDKIVIEKQGKGTADETSKSGKQSIAIDDCTFHQCVRLSKFDSERSISFIPPDGEFELMRYRTTKDIILPFRVIPLVREVGRTKLEVKVVIKSNFKPSLLAQKIEVRIPTPLNTSGVQVICMKGKAKYKASENAIVWKIKRMAGMKESQISAEIELLPTNDKKKWARPPISMNFEVPFAPSGLKVRYLKVFEPKLNYSDHDVIKWVRYIGRSGIYETRC

The first test covers variants of B1. Nature of the test: co-immunoprecipitation (IP: HA, blot: myc), quantified. Particulars: with HA-tagged μ2 AP subunit; HEK293T cells; first bar chart of panel D (SD4 vs AVPA); parent: 100; read off a plot.
For chain 1 Y178A V181A, the percent of parent worked out at 45 %SD4.

Still in this test, the particulars now being: with HA-tagged μ2 AP subunit; HEK293T cells; third bar chart of panel D (SD4 vs AVPA vs ∆170-89); marked ns; parent: 100; read off a plot.
chain 1 Y178A V181A: the percent of parent came out at 55 %SD4.
